One data set deals with ovalbumin (UniProt P01012 2-386). The data set can be described thus: fluorescence recovery on WS2 nanosheets; 10 ug/mL protein; no significant recovery; 200 nM FAM-aptamer, 750 ug/mL WS2 (10 min, room temperature), then β-Lg with 0.04 U/uL DNase I, 40 min at 37 °C; ex 490/em 518 nm; buffer, salt and pH not given in the material. As to conditions: protein: commercial; label: 5'-FAM.

For data set [1], the target named is T1, beta-lactoglobulin (β-Lg) (Bos taurus (cow's milk)?, UniProt P02754 17-178).
T1 sequence: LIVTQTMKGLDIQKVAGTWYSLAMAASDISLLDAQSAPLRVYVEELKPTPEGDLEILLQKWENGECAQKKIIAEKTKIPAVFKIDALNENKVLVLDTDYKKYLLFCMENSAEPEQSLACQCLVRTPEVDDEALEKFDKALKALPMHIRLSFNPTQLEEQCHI
The data set can be described thus: fluorescence recovery on WS2 nanosheets (FRET quenching); no DNase I; WS2 nanosheets; LOD 35 ng/mL; 200 nM FAM-aptamer, 750 ug/mL WS2 (10 min, room temperature), then β-Lg with 0.04 U/uL DNase I, 40 min at 37 °C; ex 490/em 518 nm; buffer, salt and pH not given in the material. The following applies: protein: commercial; chain copies: 2; label: 5'-FAM.

The target in data set [2] is T1, beta-lactoglobulin (β-Lg). Kind of data set: fluorescence recovery on WS2 nanosheets, DNase I amplified; DNase I; β-Lg 0.1-100 ug/mL; little fluorescence change, independent of β-Lg; 200 nM FAM-aptamer, 750 ug/mL WS2 (10 min, room temperature), then β-Lg with 0.04 U/uL DNase I, 40 min at 37 °C; ex 490/em 518 nm; buffer, salt and pH not given in the material. As to conditions: protein: commercial; chain copies: 2; label: 5'-FAM.

ovalbumin, sequence (P01012 2-386): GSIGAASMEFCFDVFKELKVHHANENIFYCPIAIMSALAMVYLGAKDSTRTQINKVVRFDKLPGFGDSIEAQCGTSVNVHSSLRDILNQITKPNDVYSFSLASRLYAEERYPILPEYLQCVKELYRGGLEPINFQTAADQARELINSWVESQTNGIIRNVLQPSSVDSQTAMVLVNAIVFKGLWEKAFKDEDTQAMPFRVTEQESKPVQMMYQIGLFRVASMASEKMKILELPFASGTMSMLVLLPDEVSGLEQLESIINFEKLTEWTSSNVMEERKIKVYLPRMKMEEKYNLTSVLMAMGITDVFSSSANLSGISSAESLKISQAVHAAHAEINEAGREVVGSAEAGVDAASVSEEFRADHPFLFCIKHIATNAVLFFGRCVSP

B1: β-Lg aptamer (ssDNA)
DNA: CGACGATCGGACCGCAGTACCCACAGCCCCAACATCATGCCCATCCGTGTGTG
With B1, the binding result is “no binding” with ovalbumin and “binds” in data set [1].

B2: negative control DNA sequence (ssDNA)
DNA: CTAAGTCTGAAACATTACAGCTTGCTACACGAGAAGAGCCGCACGAGAACCCT
As to B2, the binding result in data set [2] is recorded as “no binding”.

The values above are taken from paper PMC10146092, “Highly Sensitive β-Lactoglobulin Fluorescent Aptamer Biosensors Based on Tungsten Disulfide Nanosheets and DNase I-Assisted Signal Amplification”.
